US6979673B1, “Method and compositions for modulating somatolactogenic functions” (Trustees of the University of Pennsylvania, priority 1999, dated 2005)

System: Nb2 cells
Assay: PRL-driven proliferation of Nb2 cells (3H-thymidine)
Type: cell-based, rat
Description: The effect of exogenous CypB on PRL-driven proliferation was examined with the rat Nb2 T-cell and the human T47D breast cancer line. […] This dose-dependent biphasic effect was most prominent at physiologic concentrations ([…]) of CypB and PRL (50 pM) found in human serum. […] To determine the effect of CypB on cellular growth driven by the larger family of cytokines, to which PRL belongs, proliferation driven by interleukin-2 (IL-2), IL-3 and GH was examined.
Nb2-cells (5×10^4; PRL-dependent, rat T-lymphoma) were plated in each well of 96 well plates in a defined DMEM-serum free medium (0.1 mM 2-mercaptoethanol, 1% penicillin/streptomycin, and 1% ITS+ (Calbiochem)). Cells were rested for 24 hours at 37° C. in this defined medium in the absence of PRL before the addition of 5–500 pM PRL (either as human pituitary isolated PRL, National Hormone and Pituitary Program, NIDDK; recombinant human PRL from E. coli, Genzyme; or recombinant human PRL from Drosophila S2 cells) alone or premixed with 1–2000 fold excess of purified CypB. Parallel studies were performed using human pituitary-derived GH (National Hormone and Pituitary Program, NIDDK). Cultures were incubated for 48 hours at 37° C. and proliferation was evaluated by the addition of 0.5 μCi of ^3H-thymidine for four hours followed by harvesting and scintillography. […]

Row | Molecule | bioactivity in Nb2 bioassays (protein expressed in Drosophila S2 cells) | PRL concentration at which Nb2 growth curves plateau (PRL alone, sigmoid shaped growth curves)
1 | Myc-tagged PRL: recombinant myc-tagged human PRL expressed and secreted by Drosophila S2 cells (protein, left off: small tags and cut ends, recombinant myc-tagged human PRL expressed and secreted by Drosophila S2 cells) LPICPGGAARCQVTLRDLFDRAVVLSHYIHNLSSEMFSEFDKRYTHGRGFITKAINSCHTSSLATPEDKEQAQQMNQKDFLSLIVSILRSWNEPLYHLVTEVRGMQEAPEAILSKAVEIEEQTKRLLEGMELIVSQVHPETKENEIYPVWSGLPSLQMADEESRLSAYYNLLHCLRRDSHKIDNYLKLLKCRIIHNNNC | functionally bioactive | –
2 | PRL: somatolactogenic hormone prolactin; human pituitary isolated or recombinant human PRL (protein, left off: small tags and cut ends) LPICPGGAARCQVTLRDLFDRAVVLSHYIHNLSSEMFSEFDKRYTHGRGFITKAINSCHTSSLATPEDKEQAQQMNQKDFLSLIVSILRSWNEPLYHLVTEVRGMQEAPEAILSKAVEIEEQTKRLLEGMELIVSQVHPETKENEIYPVWSGLPSLQMADEESRLSAYYNLLHCLRRDSHKIDNYLKLLKCRIIHNNNC | – | approximately 2 ng PRL/ml
